For orientation: Kd means the concentration at which binding is half-saturated. A lower Kd goes with tighter binding. As a reminder, the koff is the rate constant with which the complex falls apart. As a reminder, the kon is the second-order rate constant of association.

For test [1], the target named is T1, Homo sapiens factor Bb protein (human, UniProt P00751 260-764).
T1 construct: Bought from CompTech (A155); also called complement factor Bb; human factor Bb
The test is described as follows: BLI Octet, biotinylated antibody on SA biosensors. The procedure: Briefly, biotinylated antibodies were loaded onto SA Biosensors equilibrated in PBS, 0.1% BSA, 0.02% Tween-20 (assay buffer). After a 60 second baseline in assay buffer, antibodies were loaded onto the probes for 180 seconds, followed by another 60 second baseline. Association to human (Comptech) or cynomolgus monkey factor Bb (purified in-house) was measured for 300 seconds, followed by a 300 second dissociation. Kinetic parameters were calculated by the Octet Analysis software using a 1:1 binding model.
To determine whether the modification of the Fc portion of the antibodies affected affinity and species cross-reactivity, VH4/VK6-IgG4v2 and VH6/VK7-IgG4v2 were tested alongside their parental antibodies, VH4/VK6 and VH6/VK7, respectively, for their ability to bind human and cynomolgus monkey factor Bb by BLI. VH4/VK6-IgG4v2 and VH6/VK7-IgG4v2 contain mutations in the Fc region that increase the affinity for an Fc receptor.
Background: In BLI a coated tip is dipped into the sample, and binding shifts an interference pattern.

Test [2] addresses T1, Homo sapiens factor Bb protein. Description: SPR single cycle kinetics, IgG on Protein A chip, factor Bb analyte. The procedure:
In order to assess the binding of all humanized variants, single cycle kinetic analysis was performed on supernatants from transfected cell cultures. […] All single cycle kinetic experiments were run at 25° C. with HBS-P+running buffer (pH 7. 4) (GE Healthcare, Little Chalfont, UK).
Antibodies were diluted in running buffer to a final concentration of 1 μg/ml, based on concentrations assessed by ELISA titer. At the start of each cycle, antibodies were loaded onto Fc2, Fc3 and Fc4 of the Protein A chip (GE Healthcare, Little Chalfont, UK). IgGs were captured at a flow rate of 10 μl/min to give an immobilization level (RL) of ˜63 RU, the theoretical value to obtain an Rmax of ˜50 RU. The surface was then allowed to stabilize. Single cycle kinetic data was obtained with factor Bb (CompTech, Tyler, USA) as the analyte at a flow rate of 30 μl/min to minimize any potential mass transport limitations. Multiple repeats with the reference chimeric antibody were performed to check the stability of the surface and analyte over the kinetic cycles. The signal from the reference channel Fc1 (no antibody) was subtracted from that of Fc2, Fc3 and Fc4 to correct for differences in non-specific binding to a reference surface. A four point, two-fold dilution range from 0. 78 nM to 6. 25 nM factor Bb without regeneration between each concentration was used. The association phase for the four injections of increasing concentrations of factor Bb was monitored for 200 seconds each time and a single dissociation phase was measured for 200 seconds following the last injection of factor Bb. Regeneration of the Protein A surface was conducted using two injections of 10 mM glycine-HCL pH 1. 5.
Single cycle kinetics using cell culture supernatants were performed as described above.

For test [3] the target is unchanged. Description: SPR multi-cycle kinetics; ratio against VH0/Vκ0 on the same chip. The procedure: Antibodies were diluted in running buffer to a final concentration of 0.5 μg/ml. At the start of each cycle, antibodies were loaded onto Fc2, Fc3 and Fc4 of the Protein A chip (GE Healthcare, Little Chalfont, UK). IgGs were captured at a flow rate of 10 μl/min to give an immobilisation level (RL) of ˜63 RU, the theoretical value to obtain an Rmax of ˜50 RU. The surface was then allowed to stabilize. Kinetic data was obtained with factor Bb as analyte and using a flow rate of 30 μl/min to minimize any potential mass transfer effects. Multiple repeats of a blank and a repeat of a single concentration of the analyte were programmed into the kinetic run in order to check the stability of both the surface and analyte over the kinetic cycles. For kinetic analysis, a two-fold dilution range was selected from 12. 5 nM to 0. 391 nM factor Bb. The association phase of factor Bb was monitored for 360 seconds and the dissociation phase was monitored for 600 seconds. Regeneration of the Protein A surface was conducted using two injections of 10 mM glycine-HCL pH 1. 5. The signal from the reference channel Fc1 was subtracted from that of Fc2, Fc3 and Fc4 to correct for differences in non-specific binding to a reference surface, and a global Rmax parameter was used in the 1-to-1 binding model.
The sensorgrams and fitted data for the binding of chimeric antibodies and humanized variants to factor Bb are shown in FIGS. 4A-4C. The relative KD was calculated by dividing the KD of the humanized variants by that of the chimeric antibody on the same chip. The kinetic parameters measured for the interaction of factor Bb with chimeric antibodies and humanized variants are shown in Table 10.

T1 sequence (P00751 260-764 limits assumed): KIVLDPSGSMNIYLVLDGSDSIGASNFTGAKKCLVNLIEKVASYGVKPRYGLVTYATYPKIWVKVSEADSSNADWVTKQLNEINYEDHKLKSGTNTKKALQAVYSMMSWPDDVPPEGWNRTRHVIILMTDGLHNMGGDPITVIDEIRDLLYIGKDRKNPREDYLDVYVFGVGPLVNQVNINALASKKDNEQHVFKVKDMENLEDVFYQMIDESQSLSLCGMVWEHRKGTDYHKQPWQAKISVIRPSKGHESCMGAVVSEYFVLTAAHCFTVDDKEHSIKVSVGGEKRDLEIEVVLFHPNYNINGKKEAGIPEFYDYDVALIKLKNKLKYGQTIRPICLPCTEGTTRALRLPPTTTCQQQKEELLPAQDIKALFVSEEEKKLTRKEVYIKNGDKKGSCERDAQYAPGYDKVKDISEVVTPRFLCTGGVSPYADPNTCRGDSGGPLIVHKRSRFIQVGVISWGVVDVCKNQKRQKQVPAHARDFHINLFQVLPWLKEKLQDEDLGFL

B1: VH6/Vκ7-IgG4v2 (antibody)
heavy: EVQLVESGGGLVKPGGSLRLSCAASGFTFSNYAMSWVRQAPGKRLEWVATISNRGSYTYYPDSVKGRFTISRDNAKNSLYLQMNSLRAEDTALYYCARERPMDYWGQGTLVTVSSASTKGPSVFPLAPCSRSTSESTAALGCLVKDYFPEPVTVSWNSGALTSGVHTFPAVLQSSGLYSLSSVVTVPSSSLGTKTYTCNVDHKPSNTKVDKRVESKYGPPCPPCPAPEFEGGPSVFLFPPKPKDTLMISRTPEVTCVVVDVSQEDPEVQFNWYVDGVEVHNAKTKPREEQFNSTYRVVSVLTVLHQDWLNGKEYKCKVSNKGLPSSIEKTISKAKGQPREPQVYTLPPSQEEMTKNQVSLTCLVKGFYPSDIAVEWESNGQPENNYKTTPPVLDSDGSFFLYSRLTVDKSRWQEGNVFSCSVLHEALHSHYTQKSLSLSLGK
light: DIQMTQSPSTLSASVGDRVTITCKASQDVGTAVAWYQQKPGKAPKLLIYWASTRHTGVPDRFSGSGSGTDFTLTISSLQAEDFAVYFCHQHSSNPLTFGQGTKLEIKRTVAAPSVFIFPPSDEQLKSGTASVVCLLNNFYPREAKVQWKVDNALQSGNSQESVTEQDSKDSTYSLSSTLTLSKADYEKHKVYACEVTHQGLSSPVTKSFNRGEC
notes: also called VH6/VK7-IgG4v2; VH6/VK7-IgG4v2_HEK
For B1, binding in test [1] was put at a Kd of 1.7 nM.

B2: VH0/Vκ0 (Chimeric) (antibody, V domains shown)
VH: EVQLVESGGALVKPGGSLKLSCAASGFTFSNYAMSWVRQTPEKRLEWVATISNRGSYTYYPDSVKGRFTISRDNAKNTLYLQMSSLRSEDTALYYCARERPMDYWGQGTSVTVSS
VL: DIVMTQSHKFMSTSVGDRVSITCKASQDVGTAVAWYQQKPGQSPKLLIYWASTRHTGVPDRFTGSGSGTDFTLTITNVQSEDLAVYFCHQHSSNPLTFGAGTKLELK
notes: also called chimeric antibody
In test [2], B2 had a dissociation constant Kd of 1.77 nM, a koff of 0.000949 s⁻¹ and a kon of 535000 M⁻¹ s⁻¹. Besides, the “Relative KD” value in test [3] stood at 1.

The values above are taken from patent US20210332115A1 (Sanofi, published 2021).
